Assay: soluble on expression in E. coli; label from the status in PepcDB or PDB records

Sequence | soluble on expression in E. coli
MSLGKFTAVILDFETTGLSPGYGDRAIEIGAVLVRNNRIVDRFQSLMNPGKRVSGFIEEYTGITNEMLAKAPPAEQVMERFASFIAGHNLVAHNASFDRRFLDAELSRIGRRRTGDFACSMLAARRIYTNAPNHRLETLVSHLSLQTDGVFHRALADAEMTAQLWTAMIGELKETYRLRQVTFELMHSLGGVAKKAVPAYLERVAAGREGHHHHHH | not soluble
MSLGLFSKKPPCPICGGKIPLILPSKIEDEYICNTCYNKIDMGADQENHLTMQGLREYLAFYEQNQRLKEQFVISERIDFGLWDTKIIFDHRNKLFCMSKNPDKTVFEGQQLKSFTIKEDSTPLFEGSAAGIRRYASTVTERTMAMAPQIAQSAANRRMARTLDRLDDGKVNNSAPVQYFDIPEPFQAFNVELHFDHPYWTVLQCDMDGPRFDNSHPDVNNYLRSYQQSIEEIEKLVAALRTVAFPGAAEQSVGLGPVGMQAAYTTMAPPTDAIEEIKKYKALMEDGIISQQEFEAKKKQLLGIEGHHHHHH | soluble
MSLGQIKGDLHMHSTWSDGAFSIREMAEACIKKGYQYMAITDHSQYLKVANGLTAERLKQQAKEIDALNAEFENFRILKGVEMDILPDGTLDYDDDVLAEMDIVIASIHSSFNQPEHVIMKRLETALTNKHVDIIAHPTGRLIGRRAGYEIDIDQLIELARKTNTALELNANPARLDLRTEHLMKANEQGVTLVINTDAHNIEMLDDMKTGVTAARKGWTETKNVLNARSLKDVEAFLKRNDEGHHHHHH | soluble
MSLGRGMQKQRFCLDTSAFTEPSVRKALGVKTVTELTDKVMDLIAEARIKLNISCHIPYPTVYNELMGFLENENCPRDVIVKVDTWLVKKTPNRYEIKIPSEIFYEYVKDLRERINKGMRIGEEHIIKATDMVYELSKKHPEMGKNEIINKVLSKTINTFRNKYRSALRVGTLDSAPDLDVLLLAKELDAAVVASDGGIEKWAQRLGLRFVDASDFPFMLEEYLKHNDRHLRIKYEGHHHHHH | soluble
MSLGRRAAIYARYSTELQDGRSIDDQVALCREHAARSGLTVVATYDDRAKTSASIFGRDGLARMMEQARARQFDVVIVEALDRLSRDQEDLAHIHKRLSFARIDILTVHEGVADSVSVGLRGLMGTMFLEALKAKTRRGLAGVIRDGRHAGGQTYGYRGVPGEPGKREIVAHEAEIIREIFAAYVEGKSPRTIAGELNARGIAAPRGPKWNASTLNGNPQRGYGILRNPMYDGRLVWNRVTMVRDPDTGRRVNRENPLDARQEVEAEHLRIVPRPLFEAAVRRHAQQAEAVRTGKITKAPPRPFSGLIRCACCGGGMSIHDRCGEAIRIRCSTANESGSCENKARYRLEKIEEAIFLRLRAQLDRPDYLKEFVRVYAEERRRLTETARRDRARLERAAADSRARYMRLVDMMARGLIEGEEADAQVLQAKQAAEIARSELEIASSEDNVVELHPQATAAYTRAIADLSAALQRGDGTFDATSVEALRRIITEITVHPKDEAGDVLVEVRGNMERLLGIGQQIVGGPMVARGGLEPPTPREGHHHHHH | not soluble
MSLGSTTPISIFELVTRLENDSQVANDTKHLFFSGENIGYSEMIGRRPNMEDAIVIRENFREKLHIAAVFDGHSGHSVARSCAASLPDLLRNDETINSDAIKKHLDHINHVLLSSNDLAGSTMQFAIIDMNNNHLTIMQLGDSRSVVYKNDGRVTFYTQEMRPERRSELARLREDRIRLKRLRTGGMLACSTSIGDFQVKGISHEPEVIEMDISDDDRWIVIACDGLWDDVNNESAAKILLDSESPHVAATLLRDLAFQRGSEDNISVIVVDLDLLRNEGHHHHHH | soluble
MSLGTNPFYKIKREGEISLKLKNQLFRLYFLLIYSSLENLQMADKKSPVAVGMTVTPSNQANFVDAGSTTLMNKPGEPTFKLGINLNKVEFKCTEDRKPISVNLKLHNPMAVTVSYKVRCTSADIFRVQPPLGFVKPNETVSIVIWYQNQDKKDAISKNHYFAFYHTTSDGRTARELWANSKVEGVRRLPASFLSTK | not soluble
MSLGTVHARSLEPLPASGPDFGALGEEAEFVEVEPEAKQEILENKDVVVQHVHFDGLGRTKDDIIMYEIRDVFKAKNLIEVMRKSHEAREKLLRLGIFRQVDVLIDTCQGDDALPNGLDVTFEVTELRRLTGSYNTMVGNNEGSMVLGLKLPNLLGRAEKVTFQFSYGTKETSYGLSFFKPQPGNFDRNFSVNLYKVTGQFPWSSLRETDRGVSAEYSFPTWKTSHTVKWEGVWRELGCLSRVASFAVRKESGHSLKSSLSHSMVIDSRNSSILPKRGALLKVNQELAGYTGGDVSFLKEDFELQLNKQLILDTVFSASLWGGMLVPMGDKPSSIADRFYLGGPTSVRGFSMHSVGPQSEGDYLGGEAYWAGGLHLYTPLPFRPGQGGFGELFRTHFFLNAGNLCNLNYGEGPKAHIRKLAECIRWSYGAGIVLRLGNIARLELNYCVPMGVQRGDRICDGVQFGAGIRFLEGHHHHHH | not soluble
MSLGVQPPNFSWVLPGRLAGLALPRLPAHYQFLLDLGVRHLVSLTERGPPHSDSCPGLTLHRLRIPDFCPPAPDQIDRFVQIVDEANARGEAVGVHCALGFGRTGTMLACYLVKERGLAAGDAIAEIRRLRPGSIETYEQEKAVFQFYQRTKEGHHHHHH | soluble
MSLHELDYYLIELDNPFCSDLPKIIAVHDKNLRYTSMGRGSSIEMRTITAYGEILERYCLWNQTPDLTSAFCADKPMLSPEEQVLPISESIDDREVEWKSYYSLSNHQRIFIHRPINSACYSNYFTQTSNGSAVHETEELAINSALEELIERHLFNIFWLFESNILEKSFSSDEIEHAIESGWRLDFYEIRDYKSCTICVMINRSDRRFSKGAMTVGLSFGSDSDACIRAYTECLQTLEAYLAFDKKVNNASLYYLSGKGTSQWQRKINTSLSSTPLSITKSVFEKYSPYMFTEKTNNDLVYCEVVMPHLIPLQYEHERDIRVNPDLLGHLTHRNMCYPIGEGHHHHHH | not soluble
MSLHPHAMPDMGPDMNKVPWMGDEQIAMLVYPGMTVMDLVGPHCMFGSLMGAKIYIVAKSLDPVTSDAGLAIVPTATFGTCPRDLTVLFAPGGTDGTLAAASDAETLAFMADRGARAKYITSVCSGSLILGAAGLLKGYKATSHWSCRDALAGFGAIPTEARVVRDRNRITGAGVTAGLDFGLSMVAELRDQTYAECAQLMSEYDPDPPFNAGSMKTAPAHVRTAMIELVAEFTKKADALAGFPKEGHHHHHH | soluble
MSLIAPVLKGKGVLITRAKEQASSLSRLIEEAGGVPIEVPLLSFIKTMDVYEEVGASIQSYEWIVFTSANAVRFFFNTWPRQELKKLPSIAAVGSSTQRELSRYGISVDLMPNEYVAESLVETMVKRLKPCRVLFPKGNLARPTVKVGLETNGFIVDEMTVYETKRPLEAKVMLCEAFQKHRIEIITFTSPSAVDHFVTLLDREFILHEHLLYAYIGPIAAARAKQRGLPVHIVAKTYTGEGLVNAICDFVKEDGEGHHHHHH | soluble
MSLIEKLRNIAIIAHVDHGKTTLVDKLLQQSGTFDSRAETQERVMDSNDLEKERGITILAKNTAIKWNDYRINIVDTPGHADFGGEVERVMSMVDSVLLVVDAFDGPMPQTRFVTKKAFAYGLKPIVVINKVDRPGARPDWVVDQVFDLFVNLDATDEQLDFPIVYASALNGIAGLDHEDMAEDMTPLYQAIVDHVPAPDVDLDGPFQMQISQLDYNSYVGVIGIGRIKRGKVKPNQQVTIIDSEGKTRNAKVGKVLGHLGLERIETDLAEAGDIVAITGLGELNISDTVCDTQNVEALPALSVDEPTVSMFFCVNTSPFSGKEGKFVTSRQILDRLNKKLVHNVALRVEETEDADAFRVSGRGELHLSVLIENMRREGFELAVSRPKVIFREIDGRKQEPYENVTLDVEEQHQGSVMQALGERKGDLKNMNPDGKGRVRLDYVIPSRGLIGFRSEFMTMTSGTGLLYSTFSHYDDVRPGEVGQRQNGVLISNGQGKAVAFALFGLQDRGKLFLGHGAEVYEGQIIGIHSRSNDLTVNCLTGKKLTNMRASGTDEAVVLVPPIRMTLEQALEFIDDDELVEVTPTSIRIRKRHLTENDRRRANRAPKDEGHHHHHH | soluble
MSLIEPDHPDLSIGQQCKLLSIARSSYYYEPKGETEQNLGLMRRIDEQFLETPFFGVRQMTWHLRNDGHLVNEKRIRWLMRLMGLMPIYQKPNTNRPTKGHKTYPYLLRGLRVERPNQVWCSDITYLPMRRGFLYLVAIMDWHTRKVLSWRISNTLEAQFCVDALNEAIHKFGPPEIMNTDQGSQFTSFAWTDRLRRSGVRISPLAHENMRCRAADGRERSVPPLSWFASKPLSGNGQHLHREAVAHPEIRVRLPACLGDRFGDKGGHPEMDDLLQPPAPAFSPRRQATGAGLLAEKEGHHHHHH | not soluble
MSLIGETINKLKVIKESSKRDKSRCKMYECLCECGEVIIVRSSTLRQGKIKSCGCESNKIHSELMRERNTTHGLSSNPMYQRWLGMKQRCYDVNAINYKNYGGRGIEICEEWKNDFKKFYDYMGDPPNENYQIDRINNDGNYEPGNVKWSTRSENSTNIRKKEGHHHHHH | soluble
MSLIITRTPLRITFVGGGTDLPDFYTRHGGSVVSAAINRYIYIIVNKKFDSKIRVSYSRTEIVDKVDEIRHPTVREALRLLELDGGIEILSISDVPSQGTGLGSSSSFLVGLLNALHAYKSEYVSNETLAEEAVKIEREILREAGGKQDQYMAAYGGIDLLQFFQNGEVRVKPIPLNTERLKYLRDNTALLYTGVERSSTDIHTDQISKIDDHIQEYLEMKKLAEEFAVKLYASDIKELGEIMDRNWMLKRKLSGKITNDLIDRLYIRAKELGAYGGKLIGAGGGGFLLFFIDHNKRENLKELGLRQMDYDFDFEGSRIIYYQDREGHHHHHH | soluble
MSLIKLYDNYVFISQEGGESGERLYSKKFREKSVVDVSGLRIGEGLVVAAGPCSVENEAMILDIARSVKAAGADMIRGGAFKPRTSPYSFQGLAEKGIEYLVEAREETGLPIVTEIMNPEYYRYFDRVDMLQVGSRNAQNFDLLRFLGKQKKPVLLKNGMGNTAREWLETAEYILSGGNGNVVLCYRGVRGIENSTRFTMNVGSIIYAKSETHLPICADPSHASGRRDFVESMALASVAAGADMLEIEVHNDPDNALSDSEQQIRPVDLKRIIEKARALKDLLSHEIEGHHHHHH | not soluble
MSLILRRVFIAIGCVLFSPLSQANSSLGEVNIELRGNVVDFTCAVVAGDSNKSVNLGTWPTKQLHAAGDATQPVAFSLKLEGCPPGSASITFSGTPAPGTALLALADTAMAQKLAIEIRDGDQRRLPLEQASKAVDIDNNGNATLKFYANYIALADGVQPGLANADATFLINYNEGGSHHHHHH | soluble
MSLISLSFFPGAKIGVLGLNGAGKSTLLRIMAGIDKDIDGEARPQPGLKVGYLPQEPKLDESKTVREVVEEAVADVAYALKRLDEVYAAYAEPDADFDALAKEQGELEALIQAKNGHNLDNALERAADALRLPEWDAQVKYLSGGERRRVAICRLLLENPDMLLLDEPTNHLDAESVAWLERFLVDYAGTVVAITHDRYFLDNAAGWILELDRGEGIPWQGNYTSWLEQKDARLKQEASQEKARQKTIEKELEWVRQNPKGRQAKSKARMARFEELQNTEHQKRNETNELFIPPGERLGDKVIEVKNLTKSFDGRVLIDDLSFSMPKGAIVGIIGPNGAGKSTLFKMLSGVEKPDSGTIELGDTVKLASVDQFRDSMNDKHTVFQEISEGADIIRINNFEIPARAYCSRFNFKGVDQQKVIGELSGGERNRVHLAKLLKAGGNVLLLDEPTNDLDVETLRALEEALLEFPGCAMVISHDRWFLDRIATHILDYRDEGKVNFYEGNYTEYMEWLKQTLGAQAAEPHRIKYKRITK | not soluble
MSLISPIIRLSHVTFQTSSAARVIKEFVTKYQFHPFAARGLDGGSPCQVALKNGGVVFMVNENTPKTHENSVLLYDFPLQIPFPDTACNVTFEVEDVSGLYHHLVDEGCQLLLPPTELHDDFGSVTYCIVKSVVGNVSHTLIDRTHYRSSFLPGFEYLKNSTHNLSSGNMTEGHHHHHH | not soluble

Reference: the DeepSol protein solubility set
